We go through 16 sequences from the nanobody polyreactivity screen of Harvey et al. (2022).

The nature of the data set: yeast display, Sf9 membrane polyspecificity reagent, FACS + sequencing; frameworks hold sequencing errors. The method in brief: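 Genes from sorted yeast were amplified by colony PCR, read by MiSeq 2 × 250 sequencing and filtered on CDR length. These cells carried a synthetic nanobody library in Saccharomyces cerevisiae BJ5465 and were sorted by FACS into low and high (top ~1%) gates on anti-HA and streptavidin fluorescence. Polyreactivity is labelled according to the gate of origin.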
In the case of “QVQLVESGGGLVQAGGSLRLSCAASGFIFKSYAMGWYRQAPGKERELVAAISGRGGSTYYADSVKGRFTISRDNAKNTVYLQMNSLKPEDTAVYYCNVVPSTYYQYDYWGQGTQVTVSS”, the “polyreactivity (PSR sort gate)” value is recorded as “high polyreactivity”.

Turning to “QVQLVESGGGLVQAGGSLRLSCAASGFIFKVNAMGCYRQAPGKERELVAAISRRGGTTYYADSVKGRFTISRDNAKNTVYFQLNSLKPEDTAVYYCYRARSYGVTDKVAILADDYWGQGTQVTVSS”, the “polyreactivity (PSR sort gate)” value is listed as “high polyreactivity”.

On to “QVQLVESGGGLVQAGGSLRLSCAASGFIFKWNAMGWYRQAPGKERELVAAITSGGGTYYADSVKGRFTISRDNAKNTVYLQMNSLKPEDTAVYYCAGYGYWGQGTQVTVSS”, for which the “polyreactivity (PSR sort gate)” value is “high polyreactivity”.

Regarding “QVQLVESGGGLVQAGGSLRLSCAASGFIFKYNAMGWYRQAPGKERELVAAISYRGTRTYYADSVKGRFTISRDNAKNTVYLQMNSLKPEDTAVYYCNAGLTYNHHPYDYWGQGTQVTVSS”, the “polyreactivity (PSR sort gate)” value is given as “high polyreactivity”.

For “QVQLVESGGGLVQAGGSLRLSCAASGFIFLGNAMGWYRQAPGKERELVAAISSGGSTYSDSVKGRFTISRDNAKHTVYLQMNSLKPEDTAVYYCAADSFIPPYDHWGQGTQVTVSS”, the “polyreactivity (PSR sort gate)” value is “low polyreactivity”.

Consider “QVQLVESGGGLVQAGGSLRLSCAASGFIFLGYAMGWYRQAPGNERELVAAISESSGTTSYADSVKGRFTISRDNAKNTVYLQMNSLKPEDNAVYYCAADSIGNYLLYDYWGQCTQVTVSS”, for which the “polyreactivity (PSR sort gate)” value was “low polyreactivity”.

In the case of “QVQLVESGGGLVQAGGSLRLSCAASGFIFLLNAMGWYRQAPGKEREFVAAISWGGGSTYYADSVKGRFTISRDNAKNTVYLQMNSLKPEDTAVYYCAAKPGKTPLTGHRGPYDTGYGYWGQGTQVTVSS”, the “polyreactivity (PSR sort gate)” value is listed as “low polyreactivity”.

Regarding “QVQLVESGGGLVQAGGSLRLSCAASGFIFLQYPMGWYRQAPGKERDLVAAITSGGGTNYADSVKGRFTISRDNAKNTVYLQMNSLKPEDTAVYYCAARTWPWVLGATQDDYWGQGTQVTVSS”, the “polyreactivity (PSR sort gate)” value is on record as “low polyreactivity”.

In the case of “QVQLVESGGGLVQAGGSLRLSCAASGFIFLRYGMGWYRQAPGKARELVATISWSGDSTYADSVKGRFTISRDNAKNTLYLQMNSLKPEDTAVYYCATSGDWWGFRYDYWGQGTQVTVSS”, the “polyreactivity (PSR sort gate)” value is listed as “low polyreactivity”.

For “QVQLVESGGGLVQAGGSLRLSCAASGFIFLTNAMGWYRQAPWKERELVAAITGGGITYYADSVKGRFTISLDNAKNTVYLQMNSLNPEDTAVYYCATDSLIFTIFDYWGQGSQVTVSS”, the “polyreactivity (PSR sort gate)” value is reported as “low polyreactivity”.

Take “QVQLVESGGGLVQAGGSLRLSCAASGFIFLVNAMGWYSGAPGKERELVAAISKSTGGTYYADSVKGRFTISRDNAKNTVYLQMNSLKPEDTAVYYCAADEVYPVQRDMDYWGQGTQVTVSS”: the “polyreactivity (PSR sort gate)” value is “low polyreactivity”.

“QVQLVESGGGLVQAGGSLRLSCAASGFIFLYNAMGWDRQARGKERELVAAITSSGGTTYYADSVKGRFTISRDNAKNTVYLQINSLKPEDTAVYYCAARYTGRNGGSTTPEYDYWGQGTQVTVSS”: the “polyreactivity (PSR sort gate)” value was “low polyreactivity”.

In the case of “QVQLVESGGGLVQAGGSLRLSCAASGFIFLYYAMGWYRQAPGKERELVAAISSSGGSTYYADSVKGRFTISRDNAKNTVYLQMNSLKPEDTAVYYCAARRKGKARVPQYDYWGQGTQVTVSS”, the “polyreactivity (PSR sort gate)” value is listed as “high polyreactivity”.

On to “QVQLVESGGGLVQAGGSLRLSCAASGFIFNHYRMGWYRPAPGKEREFVAAISWSGGSTYYADSVKGRFTISRDNAKNTVYLQMNSLKPEDTAVYYCAASYNGLWHGDYDYWGQGTQVTVSS”, for which the “polyreactivity (PSR sort gate)” value was “low polyreactivity”.

On to “QVQLVESGGGLVQAGGSLRLSCAASGFIFNIYGMGWYRQAPGKERELVAAISRGGSTYYADSVKGRFTISRDNAKNTGYLQMNSLTPEDTAVYYCAAVGYTLEYEYWGQGTQVTVSS”, for which the “polyreactivity (PSR sort gate)” value is “low polyreactivity”.

Take “QVQLVESGGGLVQAGGSLRLSCAASGFIFNLYAMGWYRQAPGKERELVAAISSGGGTSYADSVKGRFTISRDNAKNTVYLQMNSLKPEDTAVYYCAAGYKRRYYWKGYTRYDYWGQGTQVTVSS”: the “polyreactivity (PSR sort gate)” value is “high polyreactivity”.
